The results in this text go back to the nanobody polyreactivity screen of Harvey et al. (2022).

The data set can be described thus: yeast display, Sf9 membrane polyspecificity reagent, FACS + sequencing; frameworks hold sequencing errors. Summed up: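 Nanobodies from a synthetic yeast display library (Saccharomyces cerevisiae BJ5465), induced 36–48 hours with galactose, were stained 1 hour at 4 °C with 10% biotinylated, detergent-solubilized Sf9 membrane reagent, enriched on streptavidin microbeads, then FACS-sorted. Anti-HA (expression) and streptavidin (reagent binding) fluorescence set low and high (top ~1%) gates. Polyreactivity labels come from the gate of origin. Genes were colony-PCR amplified, MiSeq 2 × 250 sequenced and filtered by CDR length.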
With “QVQLVESGGGLVQAGGSLRLSCAASGIIFAANAMGWYRQAPGKERELVAAISKNGGITYYADSVKGRFTISRDTAKNTVYLQMNSLKPEDTAVYYCAARWRQTRRYYYWGQGTQVTVSS”, the “polyreactivity (PSR sort gate)” value is listed as “high polyreactivity”.

“QVQLVESGGGLVQAGGSLRLSCAASGITFYGNDMGGYRQAPGKERELVAAISYSGGSTYYADSVKGRFTISRDNAKNTVYLQMNSLKPEDNAGYYCAVEGTKLYEYYWGQVTQVTVSS”: the “polyreactivity (PSR sort gate)” value is listed as “low polyreactivity”.

On to “QVHLVESGGGLVHAGGSLRLSCAASGSTFSYYTMGWYRQAPGKERELVAAITRRGDSTYADSVKGRFTISRDNAKNTVYLQMNSLKPEDTAVYYCAADASVGVSGMDYWGQGTQVTVSS”, for which the “polyreactivity (PSR sort gate)” value is “low polyreactivity”.

Regarding “QVQLVESGGGLVQAGGSLRLSCAASGLTFWFNAMGWYRPAPGKERALVGAIRNRGGSTYYADSVKGRFTISRDTAKNTVYLQMNSLKPEDTAVYYCAAVSWFLVGPRYYYWGQGTQVTVSS”, the “polyreactivity (PSR sort gate)” value is listed as “high polyreactivity”.

In the case of “QVQLVESGGGLVQAGGSLRLSCASSGFIFHTYAMGWYRQAPGKERELVAAISGGTSSTYYADSVKGRFTISRDNAKNTVYLQMKSLKPEDTAVYYCAARSRRGGYPRYFYWGQGTQVTVSS”, the “polyreactivity (PSR sort gate)” value was “high polyreactivity”.

As for “QVQLVESGGGLVQAGGSLRLSCAASGIIFRIYAMGWYRQAPGKEREFVAAISGSGDSTYYADSVKGRFTISRDNAKNTVYLQMNSLKPEDTAVYYCAARAIFRQGDRIYDSWGQGTQVTVSS”, the “polyreactivity (PSR sort gate)” value is recorded as “high polyreactivity”.

Consider “QVQLVESGGGLVQEGGSLRLSCAASGSTFLTYAMGWYRQAPGKERELVAGITRSGASTYYADSVKGRFTISRDNAKNTVYLQMNSLKTEDTAVYYCAATYISHFHRYYYWGQGTQVTVSS”, for which the “polyreactivity (PSR sort gate)” value was “high polyreactivity”.

Consider “QVQLVESGGGLVQAGGSLRLSCAASGRTFWYYAMGWYRQAPGKERELVAGITFTGGRTYYADSVKGRFTISRDNAKNTVYLQMNSLKPEDTAVYYCAKATEYYAESDDYDYWGQGTQVTVSS”, for which the “polyreactivity (PSR sort gate)” value is listed as “low polyreactivity”.

Take “QVQLVESGGALVQAGGSLRLSCAASGITFAYYAMGWYRQAPRKERELVASIRTGGSTYYADSVKGRFTISRDNAKNTVYLQMNSLKPEYTAVYYCARRYRTPYDYWGQGTQVTVSS”: the “polyreactivity (PSR sort gate)” value was “high polyreactivity”.

For the sequence “QVKLVDSGGGLVQAGGSLRLSCAASGRTFWNYAMGWYRQAPGKERELVAVIRFSDGSTYYADSVKGRFTISRDNAKNTVYLQMNSLKPEDTAVYYCAAKGPRRWGSGFDYWGQGTQVTVSS”, the “polyreactivity (PSR sort gate)” value is recorded as “low polyreactivity”.

Consider “QVQLVESGGGLVQAGGSLRLTCAASGSTFVPYVMGWYRQAPGKERELVAVITWTGGSTYYADSVKGRFTISRDNAKNTVYLQMNSLKPEDTAVYYCAAEYSPWFYFEQYDYWGQGTQVTVSS”, for which the “polyreactivity (PSR sort gate)” value is given as “low polyreactivity”.

Regarding “QVQLVESGGGLVQAGGSLRLSCAASGSTFYVYAMGWYRQAPGKERELGAAIDSGDSTNYADSVKGRVTISRDNAKNTVYLQMNSLKPEDTAVYYCAVGYWDSRYRYDWPNSDYWGQGTQVTVSS”, the “polyreactivity (PSR sort gate)” value is recorded as “low polyreactivity”.

As for “QVQLVESGGGLVQAGGSLRLSCAASGLIFRPYAMGWYRQAPGKEREFVAAITWSTGSTYYADSVKGRFTISRDYAKNTVYLQMNSLKPEDTAVYYCAARYTVWRRDYNYWGQGTQVTVSS”, the “polyreactivity (PSR sort gate)” value is recorded as “high polyreactivity”.

For the sequence “QVQLVESGGGLVQAGGSLRLSCAASGRILYYNVMVWYRQAPGKERELVASNTSVVSTNYADSVKGRFTISRDNAKNTVYLHMNSLKPEDTAVYYCAARYFSGSFSDEIWGMDYWGQGTQVTVSS”, the “polyreactivity (PSR sort gate)” value is “high polyreactivity”.

In the case of “QVQLVESGGCLVQAGGSLRLSCAASGRTLYRNAMGWYRPAPGKERELVARITWSGASTYYADSVKGRFTISRDNAKNTVYLQMNSLKPEDTAVYYCAAQYLSRRYGPYYTYNYWGQGTQVTVSS”, the “polyreactivity (PSR sort gate)” value is recorded as “high polyreactivity”.

For the sequence “QVQLVESGGGLVQAGGSLRLSCAASGRTFQKNTMGWYRQAPGKERELVAAIDYSATTTYYADSVKGRFTSSRDNAKNTVYLQMNSLKPEDTAVYYCAARWSYPRWEFDYWGQGTQVTVSS”, the “polyreactivity (PSR sort gate)” value is “high polyreactivity”.

Regarding “QFQLVESGRGLVQAGGSLRLSCAASGSTILYYAMGWYRQAPGTERELVAAISSSDGSTYYADSVKGRFTISRDNAKYTVYLQMNSLKPEDTAVYYCNADFYWGYNYWGQGTQVTVSS”, the “polyreactivity (PSR sort gate)” value is listed as “high polyreactivity”.

As to “QVQLVESGGGLVQAGGSLRLSCAASGLIFGWYAMGWYRQAPGKERELVAAITRSGGSTYYADSVKGRFTISRDNAKNTVYLQMNSLKPEDTAVYYCAARSYVPSYDYWGQGTQVTVSS”, the “polyreactivity (PSR sort gate)” value is recorded as “high polyreactivity”.

With “QVQLVESGGGLVQAGGSLRLSCAATGRTFSVYTMGWYRQAPGKERELVASISRSGGRTYYADSVKGRFTISRDNAKNTVYLQMNSLKPEDTAVYYCAARWYSASALKYYYWGQGTQVTVSS”, the “polyreactivity (PSR sort gate)” value is “high polyreactivity”.

On to “QVHIVESGGGLVQAGGSLRLICAASGRTFNGYVMGWYRQAPGKEREFVAVINWSGGNTYYADSVKGRFTISRDNAKNTVYLQMNSLKPEDTAVYYCAARRVRSYAYDYWGQGTQVTVSS”, for which the “polyreactivity (PSR sort gate)” value is “high polyreactivity”.

In the case of “QVQLVESGGGLVQAGGILRLSCAASGSTFAGYAMGWYRQAPGKERELVATITYSGASTYYADSVKGRFTISRDNAKITVYLQMNSLKPEDTAVYYCGKKASYWWGYEYWGQGTQVTVSS”, the “polyreactivity (PSR sort gate)” value is “low polyreactivity”.

Regarding “QVQLVESGGGLVQAGGSLRLSCAASGFIFWYYAIGWYRQAPGKERELVADISSGGSTNYADSVKGRFTISRDNAKNTVYLQMNSLKPEDTAVYYCADDTFRRDDYWGQGTQVTVSS”, the “polyreactivity (PSR sort gate)” value is “low polyreactivity”.

With “QVQLVESGGGLVQARGSLRLSCAASGSTSTYYAMGWYRQAPGKERELVAAITSSVGSTHYADSVKGRFTISRDNAKNTVYLQMNSLKPEDTAVYYCAATFGYGRYGYWGQGTQVTVSS”, the “polyreactivity (PSR sort gate)” value was “low polyreactivity”.

In the case of “QVQLVESGGGLVQAGGSLRLSCAASGSTFHRYTMGWYRQAPGKERELVAAISSGGRTYYADSVKGRFTISRDNAKNTVYLQMNSLKPEDTAVYYCNSRYPRQYWGGYDYWGQGTQVTVSS”, the “polyreactivity (PSR sort gate)” value is “high polyreactivity”.

On to “QVQLVESGGGLVQAGGSLRLICAASGNIFTTYAMGWYRQAPGKERELVAAISRTGGRTSYADSVKGRFTISRDNAKNTVYLQMNSLKPEDTAVYYCAAVPTVRPSAPRARILSDYWGQGTQVTVSS”, for which the “polyreactivity (PSR sort gate)” value is reported as “high polyreactivity”.

Turning to “QVQLVESWGGLVQAGGSLRLSCAASGSTFGYYAMGWYRRAPGNEMELVAALSSSSSTNYADSVKGRFTISRDNAMNTVYLQMNRLIPEETAVYYCASDPYWLHWTFDYWGQGSQVTVSS”, the “polyreactivity (PSR sort gate)” value is on record as “low polyreactivity”.

Turning to “QVQIVESGGGLVQAGGSLRLSCAASGYIFSVYAMGWYRQAPGKERELVAAITFRTGRTYYADSVKWRFTISRDNAKNTVYLQMNSLKPEDTAVSYCAADGYWTTFYNLYGYWGQGTQVTVSS”, the “polyreactivity (PSR sort gate)” value was “high polyreactivity”.

“QVQLVESGGGLVQAGGSLRLSCAASGLTFIHYAMGWYRQAPGKEREFVAAISTNSGSTYYADSVKGRFTISRDNAKNTVYLQMNSLKPEDTAVYYCAARGLRWRIDGEYWGQGTQVTVSS”: the “polyreactivity (PSR sort gate)” value is given as “high polyreactivity”.

As for “QFQLVESGGGLVQAGGSLRLSCAASGFIFRYNAMGWYRQAPGKERELVAAIDSGGSTYYADSVKGRFTISRDNAKNTVDLQMNSLKPEDTAVYYCYAVHEASYSGVDYWGQGTQVTVSS”, the “polyreactivity (PSR sort gate)” value is “low polyreactivity”.

On to “QVQLVESGGGLVQAGGSLRLSCAASGSTFITNIMGWYRQAPGKERELVAAISYIDGTTYYADSVKGRFTISRDNAKNTVYLQMNSLKPEDTAVYYCAAYPYLYPLRFEEYDHWGQGTQVTVSS”, for which the “polyreactivity (PSR sort gate)” value is on record as “low polyreactivity”.

With “QVQLVESGGGVVQAGGSLRLSCAASARTFYRNAMGWYRQAPGKERELVAAITGSGGSTYYADSVKGRFTISRDNAKNTVYLQMNSLKPEDTAVSYCAAGTRIYNSWIRFDYWGQGTQVTVSS”, the “polyreactivity (PSR sort gate)” value is “high polyreactivity”.

Turning to “QFQLVESGGGLVQAGGSLRLSCAASGSIFDSYYMGWYRQAPGKEREMVAAITSGGSTNYADSVKGRFTISRDNAKNTVYLQMNSLKPEDTAVYYCAAYYWYPVYYGYEYWGQGTQVTVSS”, the “polyreactivity (PSR sort gate)” value is “low polyreactivity”.

For the sequence “QVQLVESGGGLVQAGGSLRLSCAASGFTFAQYTMGWYRQAPGKERELVAAIRVGGGSTYYADSVKGRFTISRDNAKNTVYLQMNSLKPEDTAVYYCAKRTYSRKFRGAYNYWGQGTQVTVSS”, the “polyreactivity (PSR sort gate)” value was “high polyreactivity”.

With “QVQLVESGGGLVQAGGSLRLSCAASGSTFPRYAMGWYRQAPGKERELVAAITYSGGRTYYADSVKGRFTISRDNAKNTVYLQMNSLKPEDTAVYYCAARYGPYRFNPMGYWGQGTQVTVSS”, the “polyreactivity (PSR sort gate)” value is on record as “high polyreactivity”.

In the case of “QVQLVESGGGLVQAGGSLRLSCAASGSIFGRNAMGWYRQAPGKERELVAGISWSGGSTYYADSVKGRFTISRDNAKNTVYLQMNSLKPEDTAVYYCAADYWTWSGFTYYNYEYWGQGTQVTVSS”, the “polyreactivity (PSR sort gate)” value is recorded as “high polyreactivity”.

In the case of “QVQLVESGGGLVQAGGSLRLSCAASGRIFSYYAMGWYRQAPGKERELVAAINWSGGSTYYADSVKGRFTISRDNAKNTVYLQMNSLKPEDTAVYYCAVDWTSAYGTYYYTPYDSWGQGTQVTVSS”, the “polyreactivity (PSR sort gate)” value is on record as “low polyreactivity”.

As for “QDQLVESGGGLVQAGGSLRLSCAASGSIFRRNSIGWYRQAPGKERELVAAIRWSSGSTYYADSVKGRFTISRDNAKNTVYLQMNSLKPEDTAVYYCAAAKRAYSYVLHAFYYWGQGTQVTVSS”, the “polyreactivity (PSR sort gate)” value is given as “high polyreactivity”.

For “QVQLVESGGGLVQAGGSLRLSCAASGRTFGEYAMGWYRQAPGKERELVADITNGSRTYYADSVKGRFTISRDNAKNTVYLQMNSLKPEDTAVYYCAADWWKEVDYWGQGTQVTVSS”, the “polyreactivity (PSR sort gate)” value is listed as “low polyreactivity”.

On to “QVQLVESGGGLVQAGGSLRLSCAASGRTFYKYAMGWYIQAPGKERELVAAISSRGGRTYYADSVKGRFTISRDNAKNTVYLQMNSLKPEDTAVYYCAADYAVEWWGNWYEYWGQGTQVTVSS”, for which the “polyreactivity (PSR sort gate)” value is recorded as “high polyreactivity”.

“QVQLVESGGGLVQAGGSLRLSCAASGSIFYYYAMGWYRQAPGKERELVAAISYGGTRTYYADSVKGRFTISRDNAKNTVYLQMNSLKPEDTAVYYCAASQYSFKGRDYDYWGQGTQVTVSS”: the “polyreactivity (PSR sort gate)” value is “low polyreactivity”.

“QVQLVESGGGLVQAGGSLRLSCAASGSTFRYYVMGWYRQAPRKERELVAGISYRGGTTYYADSVKGRFSISRDNAKNTVYLQMNSLKPEDTAVYYCAADSTPYVLSGNYDYWGQGPQVTVSS”: the “polyreactivity (PSR sort gate)” value was “low polyreactivity”.
